Data from patent US20250230255A1 (BIOTHEUS, published 2025).
Like-named read-outs stand apart in the source and are kept apart here. One block for each binder: values may come before it.

Columns and labels:
cynomolgus PD-1 on cells = target: T1, cynomolgus PD-1 on cells (cynomolgus, UniProt Q15116 25-288 (human entry)); assay: flow cytometry on CHOS cells overexpressing cynomolgus PD1, median fluorescence intensity PE-A
T1 construct: also called CHO-cynoPD1 cell
T1 chain: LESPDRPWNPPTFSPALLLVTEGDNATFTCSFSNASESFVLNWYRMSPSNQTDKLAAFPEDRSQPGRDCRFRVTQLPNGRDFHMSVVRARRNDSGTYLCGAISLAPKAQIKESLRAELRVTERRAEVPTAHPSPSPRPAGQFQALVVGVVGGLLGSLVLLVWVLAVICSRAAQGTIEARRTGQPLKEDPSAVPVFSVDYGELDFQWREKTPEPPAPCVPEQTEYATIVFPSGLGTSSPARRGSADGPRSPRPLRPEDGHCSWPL

human PD-1 on cells = target: T2, human PD-1 on cells (human, UniProt Q15116 25-288); assay: flow cytometry on CHOS cells overexpressing human PD1, median fluorescence intensity PE-A
T2 construct: also called CHO-hPD1 cell

[1] = target: PD-1 (of the Promega PD-1/PD-L1 blockade bioassay) (UniProt Q15116 25-288, limits assumed); assay: cell-based or functional assay
[2] = target: T3, human CD39 (recombinant protein in solution) (human, UniProt P49961 38-478, limits assumed); assay: BLI (ForteBio), method of Example 3, human CD39 in solution
T3 construct: also called soluble human CD39; soluble CD39
T3 sequence: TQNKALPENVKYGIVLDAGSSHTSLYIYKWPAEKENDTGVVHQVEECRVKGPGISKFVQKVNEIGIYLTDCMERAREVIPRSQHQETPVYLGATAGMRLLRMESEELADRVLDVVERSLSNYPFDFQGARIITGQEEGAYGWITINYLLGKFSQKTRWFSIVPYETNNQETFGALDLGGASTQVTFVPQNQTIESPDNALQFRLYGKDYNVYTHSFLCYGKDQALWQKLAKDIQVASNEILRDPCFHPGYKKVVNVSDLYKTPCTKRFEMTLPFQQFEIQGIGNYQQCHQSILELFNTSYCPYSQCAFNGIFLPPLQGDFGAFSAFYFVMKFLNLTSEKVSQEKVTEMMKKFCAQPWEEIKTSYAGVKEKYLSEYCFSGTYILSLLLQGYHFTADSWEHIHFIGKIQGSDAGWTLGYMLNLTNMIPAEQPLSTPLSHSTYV
Protocol: (§1) ForteBio affinity test was conducted according to the existing methods (Estep, P et al., High throughput solution based measurement of antibody-antigen affinity and affinity binding. MAbs, 2013.5 (2): p. 270-8). In short, the sensor is balanced offline in the analysis buffer for 30 min, and then tested online for 60 s to establish baseline. After that, the AHQ sensor is online loaded with the above-obtained purified antibody, and put into 100 nM human CD39 (SEQ ID NO: 28) for 5 min, and then transferred the sensor to PBS for dissociation for 5 min. A 1:1 binding model is used for the dynamic analysis.

cynomolgus CD39 on cells = target: T4, cynomolgus CD39 on cells (cynomolgus, UniProt P49961 6-510 (human entry)); assay: flow cytometry on CHO-cyCD39 cells, MFI titration
T4 construct: also called cyCD39; CHO-cyCD39 cells
T4 chain: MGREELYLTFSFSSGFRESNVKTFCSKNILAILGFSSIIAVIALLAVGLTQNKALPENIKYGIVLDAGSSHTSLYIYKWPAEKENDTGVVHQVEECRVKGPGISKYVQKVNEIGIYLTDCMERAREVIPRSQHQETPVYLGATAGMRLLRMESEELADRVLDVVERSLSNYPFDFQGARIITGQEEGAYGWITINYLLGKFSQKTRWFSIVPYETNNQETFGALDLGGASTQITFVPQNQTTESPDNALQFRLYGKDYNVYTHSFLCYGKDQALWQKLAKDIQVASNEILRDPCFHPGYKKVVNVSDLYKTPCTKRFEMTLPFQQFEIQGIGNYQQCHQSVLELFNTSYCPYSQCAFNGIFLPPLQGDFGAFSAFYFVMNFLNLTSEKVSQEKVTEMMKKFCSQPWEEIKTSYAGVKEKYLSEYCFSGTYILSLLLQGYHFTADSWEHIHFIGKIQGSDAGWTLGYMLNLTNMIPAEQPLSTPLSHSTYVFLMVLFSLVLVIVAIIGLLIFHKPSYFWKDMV

[3] = target: T3, human CD39 (recombinant protein in …); assay: BLI (ForteBio), antibody loaded on AHQ sensor, 100 nM human CD39 in solution, 1:1 model
Protocol: as §1

human CD39 on cells [4] = target: T5, human CD39 on cells (human, UniProt P49961 1-510); assay: cell-based or functional assay
T5 sequence: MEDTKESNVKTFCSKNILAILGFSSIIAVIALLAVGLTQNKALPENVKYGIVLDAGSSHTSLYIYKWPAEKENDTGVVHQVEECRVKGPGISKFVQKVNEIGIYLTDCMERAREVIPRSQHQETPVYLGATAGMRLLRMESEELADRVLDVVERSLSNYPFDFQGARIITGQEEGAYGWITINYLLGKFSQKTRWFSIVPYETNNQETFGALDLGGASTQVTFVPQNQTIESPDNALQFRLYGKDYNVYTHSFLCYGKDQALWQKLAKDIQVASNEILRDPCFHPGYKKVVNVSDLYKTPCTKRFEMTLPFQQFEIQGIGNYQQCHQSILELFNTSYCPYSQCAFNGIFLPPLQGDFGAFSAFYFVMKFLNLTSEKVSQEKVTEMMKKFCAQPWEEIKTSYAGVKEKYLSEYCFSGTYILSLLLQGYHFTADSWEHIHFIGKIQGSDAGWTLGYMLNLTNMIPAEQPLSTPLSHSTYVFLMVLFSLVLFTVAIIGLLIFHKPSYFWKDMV

human CD39 on cells [5] = target: T5, human CD39 on cells; assay: cell-based or functional assay; remark: listed apart in the source
human CD39 on cells [6] = target: T5, human CD39 on cells; assay: cell-based or functional assay; remark: listed apart in the source
[7] = target: T3, human CD39 (recombinant protein in …); assay: BLI (ForteBio), method of Example 3, human CD39 in solution; remark: listed apart in the source
Protocol: as §1
The humanized sequences are subjected to the humanized antibody vector construction, expression and purification according to the method described in Example 2. […] The purified humanized antibodies were subjected to the affinity test at protein level according to the method described in Example 3.

[8] = target: T3, human CD39 (recombinant protein in …); assay: cell-based or functional assay
human CD39 on cells [9] = target: T5, human CD39 on cells; assay: cell-based or functional assay; remark: listed apart in the source
[10] = target: T3, human CD39 (recombinant protein in …); assay: cell-based or functional assay; remark: listed apart in the source
human CD39 on cells [11] = target: T5, human CD39 on cells; assay: flow cytometry on CHO-hCD39 cells, MFI titration

T2 sequence (Q15116 25-288 limits assumed): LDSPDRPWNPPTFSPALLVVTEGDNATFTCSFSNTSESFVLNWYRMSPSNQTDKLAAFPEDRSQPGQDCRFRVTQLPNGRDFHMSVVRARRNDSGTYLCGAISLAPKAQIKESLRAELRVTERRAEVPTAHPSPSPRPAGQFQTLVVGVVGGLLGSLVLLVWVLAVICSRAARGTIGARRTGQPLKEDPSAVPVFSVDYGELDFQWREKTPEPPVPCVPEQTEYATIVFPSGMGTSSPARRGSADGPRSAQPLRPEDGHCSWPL
PD-1 (of the Promega PD-1/PD-L1 blockade bioassay), sequence (Q15116 25-288 limits assumed): as above

B1: anti-PD1 antibody ADI-54872 (antibody, V domains shown)
VH: EVQLVQSGAEVKKPGASVKVSCKASGYTFTEYYIYWVRQAPGQGLEWIGGINPSNGGTNFNEKFKPRVTMTVDTSTSTAYMELSSLRSEDTAVYYCTVRDFRFDKGFKYWGQGTLVTVSS
VL: DIVLTQSPATLSLSPGERATLSCRASKSVSTSGLNYVHWYQRKPGQAPRLLIYLGSYLDSGVPARFSGSGSGTDFTLTISSLEPEDFAVYYCQQSWELPLTFGGGTKVEIK
notes: also called anti-PD-1 monoclonal antibody molecule
EC50 (read off the curve) (cynomolgus PD-1 on cells): ~10 nM | EC50 (read off the curve) (human PD-1 on cells): ~10 nM | EC50 (read off the curve) [1]: ~0.2 nM

B4: I394 BMK (antibody, human IgG1, kappa, V domains shown)
VH: EVQLQQSGPELVKPGASVKMSCKASGYTFTDYNMHWVKQSHGRTLEWIGYIVPLNGGSTFNQKFKGRATLTVNTSSRTAYMELRSLTSEDSAAYYCARGGTRFAYWGQGTLVTVSA
VL: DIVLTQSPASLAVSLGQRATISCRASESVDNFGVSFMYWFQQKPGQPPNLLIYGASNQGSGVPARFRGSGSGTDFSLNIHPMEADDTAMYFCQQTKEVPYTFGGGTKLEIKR
notes: also called control antibody
EC50 (cynomolgus CD39 on cells): 5.53 nM | Kd [3]: 0.855 nM | koff [3]: 0.0002 s⁻¹ | kon [3]: 285000 M⁻¹ s⁻¹ | EC50 of blocking CD39 enzyme activity in PBMC system (human CD39 on cells [4]): 10.1 nM | EC50 of blocking CD39 enzyme activity in PBMC system (human CD39 on cells [5]): 0.338 nM | EC50 of blocking CD39 enzyme activity of human CD39 overexpression cells (human CD39 on cells [6]): 1.99 nM | Kd [7]: 1.5 nM | koff [7]: 0.000371 s⁻¹ | kon [7]: 245000 M⁻¹ s⁻¹ | EC50 of blocking enzyme activity of soluble CD39 [8]: 3.09 nM | EC50 of blocking CD39 enzyme activity in human CD39 overexpression cells (ATP, CellTiter-Glo) (human CD39 on cells [9]): 10.1 nM | EC50 of blocking enzyme activity of soluble human CD39 [10]: 8.89 nM | EC50 (human CD39 on cells [11]): 4.76 nM

Further lines, results first:

EC50 (read off the curve) (cynomolgus PD-1 on cells): ~20 nM | EC50 (read off the curve) (human PD-1 on cells): ~10 nM | EC50 (read off the curve) [1]: ~0.3 nM
B2: anti-PD1×CD39 antibody (bispecific antibody, human IgG1, kappa)
heavy: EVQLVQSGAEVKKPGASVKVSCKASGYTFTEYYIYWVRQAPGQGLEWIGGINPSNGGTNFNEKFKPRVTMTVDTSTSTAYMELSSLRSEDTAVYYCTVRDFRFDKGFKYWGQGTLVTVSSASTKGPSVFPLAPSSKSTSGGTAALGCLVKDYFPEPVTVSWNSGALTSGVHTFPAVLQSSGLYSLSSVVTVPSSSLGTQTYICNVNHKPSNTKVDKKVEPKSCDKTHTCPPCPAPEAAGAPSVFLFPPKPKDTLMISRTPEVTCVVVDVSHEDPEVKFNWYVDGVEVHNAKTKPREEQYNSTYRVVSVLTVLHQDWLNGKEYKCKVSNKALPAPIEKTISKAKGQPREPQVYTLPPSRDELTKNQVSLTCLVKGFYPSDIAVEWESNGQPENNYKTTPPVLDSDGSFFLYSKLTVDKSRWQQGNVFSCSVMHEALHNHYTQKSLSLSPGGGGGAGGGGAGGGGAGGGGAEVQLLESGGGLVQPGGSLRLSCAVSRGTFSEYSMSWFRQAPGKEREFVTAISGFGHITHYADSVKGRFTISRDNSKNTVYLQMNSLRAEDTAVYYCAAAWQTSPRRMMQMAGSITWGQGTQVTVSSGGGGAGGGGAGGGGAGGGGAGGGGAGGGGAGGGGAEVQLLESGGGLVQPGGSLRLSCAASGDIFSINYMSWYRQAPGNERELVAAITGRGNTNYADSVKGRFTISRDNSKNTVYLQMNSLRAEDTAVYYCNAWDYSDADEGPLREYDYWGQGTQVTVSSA
light: DIVLTQSPATLSLSPGERATLSCRASKSVSTSGLNYVHWYQRKPGQAPRLLIYLGSYLDSGVPARFSGSGSGTDFTLTISSLEPEDFAVYYCQQSWELPLTFGGGTKVEIKRTVAAPSVFIFPPSDEQLKSGTASVVCLLNNFYPREAKVQWKVDNALQSGNSQESVTEQDSKDSTYSLSSTLTLSKADYEKHKVYACEVTHQGLSSPVTKSFNRGEC
notes: also called Anti-PD1xCD39 antibody

Kd [2]: 0.351 nM | koff [2]: 0.000106 s⁻¹ | kon [2]: 303000 M⁻¹ s⁻¹
B3: Bi307/308 (bispecific antibody, human IgG1, kappa, L234A L235A)
heavy: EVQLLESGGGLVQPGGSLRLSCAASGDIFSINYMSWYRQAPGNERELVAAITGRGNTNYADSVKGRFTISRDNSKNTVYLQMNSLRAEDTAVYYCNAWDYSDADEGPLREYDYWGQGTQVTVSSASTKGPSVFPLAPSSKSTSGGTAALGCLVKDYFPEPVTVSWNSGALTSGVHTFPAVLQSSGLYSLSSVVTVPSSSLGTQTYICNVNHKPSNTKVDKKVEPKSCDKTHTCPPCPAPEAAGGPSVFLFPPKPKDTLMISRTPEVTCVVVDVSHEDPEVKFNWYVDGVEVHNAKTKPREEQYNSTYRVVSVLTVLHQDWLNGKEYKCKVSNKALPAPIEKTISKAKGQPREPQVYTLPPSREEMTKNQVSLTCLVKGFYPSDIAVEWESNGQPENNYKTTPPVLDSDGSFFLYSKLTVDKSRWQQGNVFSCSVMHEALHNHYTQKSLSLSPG
light: EVQLLESGGGLVQPGGSLRLSCAVSRGTFSEYSMSWFRQAPGKEREFVTAISGFGHITHYADSVKGRFTISRDNSKNTVYLQMNSLRAEDTAVYYCAAAWQTSPRRMMQMAGSITWGQGTQVTVSSRTVAAPSVFIFPPSDEQLKSGTASVVCLLNNFYPREAKVQWKVDNALQSGNSQESVTEQDSKDSTYSLSSTLTLSKADYEKHKVYACEVTHQGLSSPVTKSFNRGEC
notes: also called bi-epitopic anti-CD39 antibody resembling IgG structure
